Test results taken from the DeepSol protein solubility set.

Assay: soluble on expression in E. coli; label from the status in PepcDB or PDB records

MGKLYVVPTPVGNLEDMTFRAIRVLKEVDLILAEDTRTSGILLKHFEIKNAMQSHHKFNEHKTVESVVNRIKAGETVALISDAGTPGISDPGFLVVRECVRNGIEVQCLPGATAFVPALVASGLPNEKFCFEGFLPQKKGRQTRLKALAEEHRTMVFYESPHRLLKTLTQFAEYFGTERQATVSREISKLHEETVRGSLAELIEHFTATEPRGEIVIVLAGIDD
soluble on expression in E. coli: soluble

MFVVAVANTKGGCGKTTLATHLAASFACRGYATGLADLDRQKSALGWLKRRPEGAAPIQGINLAREEDIPEGIERLVVDAAAAMDKDVVKDIVRRADLVVVPVLPGVFDEDGTARFVGHLESLKSIRKNRRDVAFVANRVRLNTRALTRLGGFLEELSFPVIARLRDTQHYTAAAAEGLSLFDLPGGRAADYRAEWTPLLDFIEIRVRG
soluble on expression in E. coli: soluble

MHHHHHHGKPIPNPLLGLDSTENLYFQGIDPFTDVAAPSPAAAAEPGPAARPRSTRGQVRLPGGEFAMGDAFGEGYPADGETPVHTVRLRPFHIDETAVTNARFAAFVKATGHVTDAERFGSSAVFHLVVAAPDADVLGSAAGAPWWINVRGAHWRRPEGARSDITGRPNHPVVHVSWNDATAYARWAGKRLPTEAEWEYAARGGLAGRRYAWGDELTPGGRWRCNIWQGRFPHVNTAEDGHLSTAPVKSYRPNGHGLWNTAGNVWEWCSDWFSPTYYAESPTVDPHGPGTGAARVLRGGSYLCHDSYCNRYRVAARSSNTPDSSSGNLGFRCANDADLTSGSAAE
soluble on expression in E. coli: soluble

MNTASLVRSLSRVALRSSQVVRMAAPRHFSQSAKVLSVTPELQQALNREIEAEQQLSSDNLQGAVAPTFAGFQVTNKDAEVRLTKKNGSEDILVVFNVNHSVDMDEGFDDEPSQAVAPVPVAMPPFTVEITKGDQRLCFHLELVPVDDQPDEYDFRVEEFYVAPSAKNGNEDVPSEVYASSGKYIDPDLHDLLFVRYLEERGLDARFCKTLVAYATHYEHSQYVGLLDKIKKFISK
soluble on expression in E. coli: not soluble

MAHHHHHHMGGQSSVTTTPEQIPVNGKSLDWGPPPDDIPEEERDNEELVLQTWAFCKAKPSPAQNYRSDVEERKRRQSMLWRKRASFIELDCGEDSFFVSNTYKVIGVADGVGGWRDEGVDASHFANSLMENAKHFSETHRKELNPEVILQSAFDKVLHDKVVKAGSSTACVVALQKDSSGEHYLDVANVGDSGVLVVRNRQVQHRVHEKVHGFNAPFQLAVLPPHLQGRAFSDRVSDATREKIPVQRGDVVITGTDGLFDNRFNISLAADAGWIGHVQGSALERVPLVGLLLGPIFANDKVAYVDPQRVAQRIVQDAYKTSLDESAHTPWASMLRKFGVEDAKGGKVDDITLVLSRVTTREELNATSTW
soluble on expression in E. coli: not soluble

MGSDKIHHHHHHMKQPNYYQDVKQFHQTFHHPGADQPTAIPLDRGVKRATWTAEEAVVEFLHQSSQNETEFLAAIETFKAGLDQAVKKSLKETYPVTEVERLVGQGDALTDALYFIMGSFVEAGLEPGPLFEIVQQANMAKLGPDGQPIFRESDQKVMKPDGWLPPEPQLEAEVVRQMKEKA
soluble on expression in E. coli: not soluble

MGSDKIHHHHHHMFPLVTITGEPFERGQQYGAATAALIRHSIASYARLFAYRRGMDWEAVQQAALAYEPLLHDVAPDLLTEMRGIAVGASRTLAEIIALNVRTELLAGVGVGFHHPEAAAALARNRAAGVPQHQEQLPATPATGSDDGECTTAAASPPATANGRVWLAQTWDWQGDQRAACVLLRVSGPDTPTLLTLTEAGMVAKIGLNEAGIAVGLNLLRSRADGQQQGMPVHVLLRQMLQSTDTVTARRLVSQIPAAGSSCITLAGADGELVALELTPTGIAEIPAQEGLLAHANHCLDGGTAAGECPLEPTSTTRERYGRAWELLHAAAGQIDLDVLQVILRDHDGAPRCICRHPDPRVAAVDRNESVCGVIIDLRGRTMHVAANIPCQAPFVPFML
soluble on expression in E. coli: not soluble

MQLTIKNKDLNTLYRVLDKIKITNMRANRGRAKLLAKVVDKINEYAKDETDLIDMYAAKDKDDKFVIDEHKNIKLADPAKLDELNDLLNELADEEIVIKGGEYSKRFIDFLNFLEECEDEFTSSEIILIDNILEQFEESKKGE
soluble on expression in E. coli: not soluble

MARKEAKMLYIFDLGNVIVDIDFNRVLGAWSDLTRIPLASLKKSFHMGEAFHQHERGEISDEAFAEALCHEMALPLSYEQFSHGWQAVFVALRPEVIAIMHKLREQGHRVVVLSNTNRLHTTFWPEEYPEIRDAADHIYLSQDLGMRKPEARIYQHVLQAEGFSPSDTVFFDDNADNIEGANQLGITSILVKDKTTIPDYFAKVLC
soluble on expression in E. coli: soluble

MTFQNKKILVAGLGGTGISMIAYLRKNGAEVAAYDAELKAERVAQIGKMFDGLVFYTGRLKDALDNGFDILALSPGISERQPDIEAFKQNGGRVL
soluble on expression in E. coli: not soluble

AIATLLDWMNVCSVEIPKRIIAKHFSACQHTNQEVFSLDDSLAGLDECLHCEDSQQNHRKVSPGQTLRIVMIGKTGVGKSAVGNTILNREVFESKPSANSITQSCRKASVYDTREIYVIDTPGILDTSKEKDIIKREIVKCIKVSAPGPHAFLLVIQIGRFTAEEQRAVQALQELFGEDASNYMIVLFTHGDLLKGQTIDQYVREGHIELRRVIQSCGGRYAVFNNTMKDRTQVKTLIDKIDQMVAVNGGECYTQEMFREAEEKIRQQKEKREIAELQEYQFSFLGILENRVTLFQRILLEGYREQFAIESGIYK
soluble on expression in E. coli: soluble

MLVPSANRWVPKFKSKKTEKKLAPDGKTELLDKDEVERKMKSLLNKLTLEMFDAISSEILAIANISVWETNGETLKAVIEQIFLKACDEPHWSSMYAQLCGKVVKELNPDITDETNEGKTGPKLVLHYLVARCHAEFDKGWTDKLPTNEDGTPLEPEMMSEEYYAAASAKRRGLGLVRFIGFLYRLNLLTGKMMFECFRRLMKDLTDSPSEETLESVVELLNTVGEQFETDSFRTGQATLEGSQLLDSLFGILDNIIQTAKISSRIKFKLIDIKELRHDKNWNS
soluble on expression in E. coli: soluble

SVAADSAATESLGRIGSLSQVSGVLGCQWGDEGKGKLVDILAQHFDIVARCQGGANAGHTIYNSEGKKFALHLVPSGILNEDTTCVIGNGVVVHLPGLFKEIDGLESNGVSCKGRILVSDRAHLLFDFHQEVDGLRESELAKSFIGTTKRGIGPAYSSKVIRNGIRVGDLRHMDTLPQKLDLLLSDAAARFQGFKYTPEMLREEVEAYKRYADRLEPYITDTVHFINDSISQKKKVLVEGGQATMLDIDFGTYPFVTSSSPSAGGICTGLGIAPSVVGDLIGVVKAYTTRVGSGPFPTENLGTGGDLLRLAGQEFGTTTGRPRRCGWLDIVALKFSCQINGFASLNLTKLDVLSDLNEIQLGVAYKRSDGTPVKSFPGDLRLLEELHVEYEVLPGWKSDISSVRNYSDLPKAAQQYVERIEELVGVPIHYIGIGPGRDALIYK
soluble on expression in E. coli: soluble

MARDALTDALTVGELRRRVHALVLGKRQRVYSGAMFLVEVVHHPELSAMLGLEDNKLLLAMIAQRLQMQSDYFQVARHSSDSFMVWAPDLDPRSARDVAPEVLDALSQPYELRGQPLIVGFRLSGALYAQHGACFDELERSLHIAMLHLDESAGAAWNMFEPSMLEHQRHYQGLEHHHHHH
soluble on expression in E. coli: not soluble

MGSDKIHHHHHHMDNKFKNIPKRHLPQKLPFDYTSIYTDPQIIKLTTRANIAIGTYEGFLESIINPMLLISPLLSQEAVLSSKLEGTHATLKDLLNYEAGNKVDIERDELHEIINYRKALFYALENISTINNIDSKGLPLSNRIIKEMHKILLDNVRGSSKNPGNFKRSQNYIGSVSSISYTPVPAEKTPEYMSNLEQYIHYDDLDLLVQSAIIHAQFEMIHPFEDGNGRIGRLLIPLFLYYQELLSYPTFYMSSYFERDRSLYISHLSNISKDNNWKDWFEYYLEGVILSAEESTKKAQDILSLYNIMKEQVIPKLNSVSGIQLLDFIFSAPIFKAEQVSEHLKISKRTTYTLLNKLIDEGYLSTDNAQRNRTYYCPQLLSIVQ
soluble on expression in E. coli: not soluble

MAVVAHTEEDVKLLARLMRAEAEGDGRLGMLMVGNVGVNRVIADCLDFRGIRSIRQMVFQSPGGFEAVQKGYFYQRAREVDIGLARQVLRGWRYHPATNALWFFKPPEGQECPPQWFNQWNVGRYKSHCFFAPTPSDCPRVY
soluble on expression in E. coli: not soluble
